Source: the supplement of paper PMC7877785
± gives the uncertainty stated by the source.

Assay: self-splicing fitness, log relative to wild type (ln ratio); higher = more splicing; Tetrahymena group I intron in knt gene, E. coli kanamycin selection, DiMSum; sequences stand for … in CUCUCU…GGAGGGAAAAGUUAUCAGGCAUGCACCUGGUAGCUAGUCUUUAAACCAAUAGAUUGCAUCGGUUUAAAAGGCAAGACCGUCAAAUUGCGGGAAAGGGGUCAACAGCCGUUCAGUACCAAGUCUCAGGGGAAACUUUGAGAUGGCCUUGCAAAGGGUAUGGUAAUAAGCUGACGGACAUGGUCCUAACCACGCAGCCAAGUCCUAAGUCAACAGAUCUUCUGUUGAUAUGGAUGCAGUUCACAGACUAAAUGUCGGUCGGGGAAGAUGUAUUCUUCUCAUAAGAUAUAGUCGGACCUCUCCUUAAUGGGAGCUAGCGGAUGAAGUGAUGCAACACUGGAGCCGCUGGGAACUAAUUUGUAUGCGAAAGUAUAUUGAUUAGUUUUGGAGUACUCGUGGUCG
Method in brief: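 A randomised library covering all eight P1ex-region intron nucleotides was built with the intron in the knt kanamycin-resistance gene on pET-22b(+) and held in E. coli BL21(DE3). Cells were grown overnight at 37°C or 30°C on LB agar, with or without 25 μg/mL kanamycin, plus 100 μg/mL carbenicillin, 50 μM IPTG and 0.2% rhamnose, and pooled colonies were amplicon-sequenced on an Illumina HiSeq 2500. DiMSum fitness is the error-weighted combination of wild-type-normalised replicate fold changes, kanamycin versus none.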

Sequence	self-splicing fitness (ln) (30 °C)	self-splicing fitness (ln) (37 °C)
CAUAAGCAAUAUUACGGUAC	-2.89 ± 0.19	-2.14 ± 0.29
CAUAAGCAAUAUUACGGUCA	-2.41 ± 0.24	-1.89 ± 0.2
CAUAAGCAAUAUUACGUCAC	-3.86 ± 0.29	
CAUAAGCAAUAUUACGUGAA	-3.45 ± 0.2	-2.14 ± 0.18
CAUAAGCAAUAUUACGUGUC	-3.62 ± 0.2	-2.55 ± 0.17
CAUAAGCAAUAUUACGUUCG	-0.99 ± 0.079	0.184 ± 0.09
CAUCAGCAAUAUUACGAAAC	-3.66 ± 0.47	-3.45 ± 0.32
CAUCAGCAAUAUUACGAACG	0.463 ± 0.11	0.656 ± 0.11
CAUCAGCAAUAUUACGACUG	-0.425 ± 0.084	-0.238 ± 0.098
CAUCAGCAAUAUUACGAGCG	-0.443 ± 0.059	0.466 ± 0.072
CAUCAGCAAUAUUACGAUCA	-0.959 ± 0.11	-0.294 ± 0.13
CAUCAGCAAUAUUACGAUGG	-0.479 ± 0.057	-0.173 ± 0.074
CAUCAGCAAUAUUACGAUUG	-1.45 ± 0.054	-0.782 ± 0.071
CAUCAGCAAUAUUACGCAGA	-2.69 ± 0.21	-2.86 ± 0.31
CAUCAGCAAUAUUACGCAGG	-0.441 ± 0.062	-1.15 ± 0.079
CAUCAGCAAUAUUACGCCAC	-2.77 ± 0.46	-2.22 ± 0.43
CAUCAGCAAUAUUACGCCAU	-3.98 ± 0.35	-2.97 ± 0.24
CAUCAGCAAUAUUACGCGCG	0.0702 ± 0.07	0.438 ± 0.084
CAUCAGCAAUAUUACGCUAA	-2.1 ± 0.17	-1.69 ± 0.16
CAUCAGCAAUAUUACGCUGU	-3.65 ± 0.18	-1.84 ± 0.15
CAUCAGCAAUAUUACGGAUA	-0.862 ± 0.06	0.0386 ± 0.074
CAUCAGCAAUAUUACGGAUU	-0.959 ± 0.062	-0.143 ± 0.077
CAUCAGCAAUAUUACGGCAC	-3.89 ± 0.24	-2.56 ± 0.24
CAUCAGCAAUAUUACGGCUU	-2.91 ± 0.14	-1.75 ± 0.17

Sequence	self-splicing fitness (ln) (30 °C)	self-splicing fitness (ln) (37 °C)
CAUCAGCAAUAUUACGGGGG	-1.94 ± 0.084	-0.816 ± 0.1
CAUCAGCAAUAUUACGGUCU	-2.82 ± 0.1	-2.22 ± 0.15
CAUCAGCAAUAUUACGUCAC	-3.06 ± 0.15	-2.68 ± 0.23
CAUCAGCAAUAUUACGUGGA	-3.6 ± 0.19	-2.05 ± 0.12
CAUCAGCAAUAUUACGUGGC	-4.41 ± 0.27	-2.72 ± 0.19
CAUCAGCAAUAUUACGUGUA	-1.18 ± 0.083	-0.43 ± 0.079
CAUCAGCAAUAUUACGUGUU	-2.31 ± 0.12	-2.79 ± 0.24
CAUCAGCAAUAUUACGUUAC	-4.12 ± 0.39	-1.92 ± 0.22
CAUCAGCAAUAUUACGUUCU	-3.82 ± 0.2	-3.32 ± 0.23
CAUCAGCAAUAUUACGUUUG	-1.57 ± 0.064	-0.71 ± 0.089
CAUGAGCAAUAUUACGACUU	-3.95 ± 0.32	-3.81 ± 0.36
CAUGAGCAAUAUUACGAGCA	-3.68 ± 0.31	-2.56 ± 0.23
CAUGAGCAAUAUUACGAUAU	-3.32 ± 0.25	-2 ± 0.31
CAUGAGCAAUAUUACGAUUC	-3.18 ± 0.21	-1.66 ± 0.19
CAUGAGCAAUAUUACGCAAA	-3.92 ± 0.38	-1.97 ± 0.24
CAUGAGCAAUAUUACGCAUU	-2.88 ± 0.19	-2.03 ± 0.24
CAUGAGCAAUAUUACGCCAG	-1.94 ± 0.19	-1.84 ± 0.24
CAUGAGCAAUAUUACGCGCG	-1.29 ± 0.15	0.0218 ± 0.14
CAUGAGCAAUAUUACGCUAG	-3.07 ± 0.21	-2.82 ± 0.23
CAUGAGCAAUAUUACGCUCC		-1.38 ± 0.48
CAUGAGCAAUAUUACGCUGA	-3.24 ± 0.18	-3.09 ± 0.23
CAUGAGCAAUAUUACGGGGU	-3.25 ± 0.3	-3.38 ± 0.33
CAUGAGCAAUAUUACGGUGG	-1.49 ± 0.078	-0.665 ± 0.088
CAUGAGCAAUAUUACGGUUC	-3.65 ± 0.46	-2.13 ± 0.38
